Experimental data published in patent EP3020822A1 (Janssen Biotech, Inc., dated 2016).

Assays:
cynomolgus TLR3 = cynomolgus TLR3 (cynomolgus, UniProt A0A2K5WT39 32-912); test: cell-based or functional assay
[1] = target: T1, human TLR3 extracellular domain (ECD) (human, UniProt O15455 24-703); test: ELISA, human TLR3 ECD coated, goat anti-human Fc:HRP, luminescence
T1 construct: amino acids 1-703 of human TLR3; the structural model covers residues 30-687; also called huTLR3 ECD; TLR3 ECD

murine TLR3, full length = murine TLR3, full length (mouse, UniProt Q99MB1 26-905); test: cell-based or functional assay

B1: mAb 15EVQ (antibody, human IgG4 S228P, kappa, F234A L235A)
heavy: not shown
light: DIQMTQSPSSLSASVGDRVTITCRASQSIGLYLAWYQQKPGKAPKLLIYAASSLQSGVPSRFSGSGSGTDFTLTISSLQPEDFATYYCQQGNTLSYTFGQGTKVEIKRTVAAPSVFIFPPSDEQLKSGTASVVCLLNNFYPREAKVQWKVDNALQSGNSQESVTEQDSKDSTYSLSSTLTLSKADYEKHKVYACEVTHQGLSSPVTKSFNRGEC
With B1 the “IC50, cyno ISRE reporter gene assay” value (cynomolgus TLR3) was 1.74 µg/mL and the “IC50, cyno NF-κB reporter gene assay” value (cynomolgus TLR3) was 4.18 µg/mL.

B2: mAb 15-4 (antibody, human IgG4 S228P, kappa, F234A L235A, V domains shown)
VH: EVQLVQSGAEVKKPGESLKISCKGSGYSFTNYWVGWVRQMPGKGLEWMGFIDPSDSYTNYSPSFQGHVTISADKSISTAYLQWSSLKASDTAMYYCARELYQGYMDTFDSWGQGTLVTVSS
VL: DIQMTQSPSSLSASVGDRVTITCRASQSIGLYLAWYQQKPGKAPKLLIYAASSLQSGVPSRFSGSGSGTDFTLTISSLQPEDFATYYCQQGNTLSYTFGQGTKVEIKR
notes: also called HC: A61S/Q67H
B2: binds [1].

B3: mAb 15-9 (antibody, human IgG4 S228P, kappa, F234A L235A, V domains shown)
VH: EVQLVQSGAEVKKPGESLKISCKGSGYSFTNYWISWVRQMPGKGLEWMGRIDPSDSYTNYSPSFQGHVTISADKSISTAYLQWSSLKASDTAMYYCARQLYQGYMDTFDSWGQGTLVTVSS
VL: DIQMTQSPSSLSASVGDRVTITCRASQSIGLYLAWYQQKPGKAPKLLIYAASSLQSGVPSRFSGSGSGTDFTLTISSLQPEDFATYYCQQGNTLSYTFGQGTKVEIKR
notes: also called HC: F50R/V34I/G35S/A61S/Q67H/E99Q
B3: binds [1].

B4: mAb 15-5 (antibody, human IgG4 S228P, kappa, F234A L235A, V domains shown)
VH: EVQLVQSGAEVKKPGESLKISCKGSGYSFTNYWISWVRQMPGKGLEWMGRIDPSDSYTNYSPSFQGHVTISADKSISTAYLQWSSLKASDTAMYYCARELYQGYMDTFDSWGQGTLVTVSS
VL: DIQMTQSPSSLSASVGDRVTITCRASQSIGLYLAWYQQKPGKAPKLLIYAASSLQSGVPSRFSGSGSGTDFTLTISSLQPEDFATYYCQQGNTLSYTFGQGTKVEIKR
notes: also called HC: F50R/V34I/G35S/A61S/Q67H
B4: binds [1].

B5: mAb 15 (antibody, human IgG4 S228P, kappa)
heavy: not shown
light: DIQMTQSPSSLSASVGDRVTITCRASQSIGLYLAWYQQKPGKAPKLLIYAASSLQSGVPSRFSGSGSGTDFTLTISSLQPEDFATYYCQQGNTLSYTFGQGTKVEIKRTVAAPSVFIFPPSDEQLKSGTASVVCLLNNFYPREAKVQWKVDNALQSGNSQESVTEQDSKDSTYSLSSTLTLSKADYEKHKVYACEVTHQGLSSPVTKSFNRGEC
B5 was tested, and the “IC50, poly(I:C) ISRE luciferase reporter gene assay, HEK293T cells with full-length murine TLR3” value (shortened to “IC50 … with full-length murine TLR3”) (murine TLR3, full length) was 22 µg/mL.

B6: mAb 15-6 (antibody, human IgG4 S228P, kappa, F234A L235A, V domains shown)
VH: EVQLVQSGAEVKKPGESLKISCKGSGYSFTNYWISWVRQMPGKGLEWMGFIDPSDSYTNYAPSFQGQVTISADKSISTAYLQWSSLKASDTAMYYCARQLYQGYMDTFDSWGQGTLVTVSS
VL: DIQMTQSPSSLSASVGDRVTITCRASQSIGLYLAWYQQKPGKAPKLLIYAASSLQSGVPSRFSGSGSGTDFTLTISSLQPEDFATYYCQQGNTLSYTFGQGTKVEIKR
notes: also called HC: V34I/G35S/E99Q
B6: binds [1].

B7: mAb 5429 (antibody, mouse IgG1, kappa, V domains shown)
VH: EVQLVASGGGLVKPGASLKLSCVASGFTFSDYWMAWVRQTPGKPMEYIGDIKSDGSKVNYAPSLKNRFTISRDNARTTLYLQMSNVRSEDTATYYCNRDIGPDWYFDFWGPGTMVTVSS
VL: DIQMTQSPTSLSASLGETVTIECRASEDIYNGLAWYQQKPGKSPQLLIYDSNSLHTGVPSRFSGRGSGTQYSLRINSLQSEDVASYFCQQYYDYPLTFGSGTKLEIKR
With B7 the “IC50 … with full-length murine TLR3” value (murine TLR3, full length) was 0.5 µg/mL.

B8: mAb c1811 (antibody, mouse IgG1, kappa, V domains shown)
VH: EVQLVASGGGLVKPGASLKLSCVASGFTFSDYWMAWVRQTPGKPMEYIGDIKSDGSKVNYAPSLKNRFTISRDNARTTLYLQMSNVRSEDTATYYCNRDIGPDWYFDFWGPGTMVTVSS
VL: DIQMTQSPTSLSASLGETVTIECRASEDIYNGLAWYQQKPGKSPQLLIYDSNSLHTGVPSRFSGRGSGTQYSLRINSLQSEDVASYFCQQYYDYPLTFGSGTKLEIKR
B8 was tested, and the “IC50 … with full-length murine TLR3” value (murine TLR3, full length) was 0.7 µg/mL.
